# Results: publication PMC4574524 (Journal of immunology (Baltimore, Md. : 1950), 2015)
# B1: ICAM-1_D1 (domain or fragment)
# chain: QTSVSPSKVILPRGGSVLVTCSTSCDQPKLLGIETPLPKKELLLPGNNRKVYELSNVQEDSQPMCYSNCPDGQSTAKTFLTVYWT
# Target: PFD1235w DBLβ3_D4, wild type (P. falciparum 3D7)
# Assay: SPR
binder,measurement,value
B1,Kd,2.34 nM
same,koff,0.00337 s⁻¹
